This passage reports Kd results from patent US20180282402A1.

The target in the experiment is Cyno HARS (cynomolgus monkey (Macaca fascicularis)). Kind of experiment: SPR (ProteOn); HRS protein immobilized, antibody as analyte.

Bounds are passed on as bounds.

B1: KL31-241 (antibody, V domains shown)
VH: QVQLVQSGAEVKKPGASVKVSCKASGYTFTDYCIGWIRQAPGQGLEWMGDICPGDAYTNDNEKFKDRATMTADTSTSTAYMELSSLRSEDTAVYYCARGEEQLGLRNAMDYWGQGTSVTVSS
VL: DIVMTQSPDSLAVSLGERATINCQSQSVSTSTYNYMHWYQQKPGQPPKLLIKYASNLESGVPDRFSGSGSGTDFTLTISSLQAEDVATYYCQHSWEIPWTFGGGTKLEIK
Take B1: the Kd amounted to 1.2 nM.

B2: KL31-532 (antibody, V domains shown)
VH: QVQLVQSGAEVKKPGASVKVSCKASGYTFTDYCIGWIRQAPGQGLEWMGDICPGDTYTNDNEKFKDRATMTADTSTSTAYMELSSLRSEDTAVYYCARGEEQLGLRNAMDYWGQGTLVTVSS
VL: DIVMTQSPDSLAVSLGERATINCQSQSVSTSTYNYMHWYQQKPGQPPKLLIKYASNLESGVPDRFSGSGSGTDFTLTISSLQAEDVATYYCGHSYEIPWTFGGGTKVEIK
Consider B2, for which the Kd amounted to 0.056 nM.

B3: AB04-439 (antibody, V domains shown)
VH: QVQLVESGGGLVKPGGSLRLSCAASGFTFSDYYMTWIRQAPGKGLEWVSYISGSFRYTNYADSVKGRFTISRDNAKNSLYLQMNSLRDEDTAVYFCARYVYQVVAIGDLWGQGTLVTVSS
VL: DIQMTQSPSSVSASVGDRVTITCRASQGISSWLAWYQQKPGRAPKLLIFAASSLQSGVPSRFSGSGSGTHFTLTISSLQPEDFATYYCQQAESFPYTFGQGTKLEIK
As for B3, the Kd came out at 0.075 nM.

B4: AB13-112 (IgG1m(za) kappa) (antibody, V domains shown)
VH: QVQLVESGGGLVKPGGSLRLSCAASGFTFSDYYMSWIRQAPGKGLEWVSYISDKSRYTKYTDKVRGRFTISRDNAKNSLYLQMNSLRAEDTAVYYCARYLYQVIAIADAWGQGTLVTVSS
VL: DIQMTQSPSSVSASVGDRVTITCRASQGISSWLAWFQQKPGKAPKLLIFVASNLESGVPSRFSGSGSGTDFTLTISSLQPEDFATYYCQQAESFPYTFGQGTKLEIK
Regarding B4, the Kd was < 0.001 nM.

B5: AB13-112 (IgG4 kappa) (antibody, V domains shown)
VH: QVQLVESGGGLVKPGGSLRLSCAASGFTFSDYYMSWIRQAPGKGLEWVSYISDKSRYTKYTDKVRGRFTISRDNAKNSLYLQMNSLRAEDTAVYYCARYLYQVIAIADAWGQGTLVTVSS
VL: DIQMTQSPSSVSASVGDRVTITCRASQGISSWLAWFQQKPGKAPKLLIFVASNLESGVPSRFSGSGSGTDFTLTISSLQPEDFATYYCQQAESFPYTFGQGTKLEIK
B5: the Kd was < 0.001 nM.

B6: AB13-288 (IgG4-2 kappa) (antibody, V domains shown)
VH: QVQLVESGGGLVKPGGSLRLSCAASGFTFSDYYMSWIRQAPGKGLEWVSYISDKSRYTKYTDKVRGRFTISRDNAKNSLYLQMNSLRAEDTAVYYCARYLYQVIAIADAWGQGTLVTVSS
VL: DIQMTQSPSSVSASVGDRVTITCRASQGISSWLAWFQQKPGKAPKLLIFVASNLESGVPSRFSGSGSGTDFTLTISSLQPEDFATYYCQQAESFPYTFGQGTKLEIK
In the case of B6, the Kd turned out to be 0.028 nM.

B7: AB13-288 (IgG1m(zf) kappa) (antibody, V domains shown)
VH: QVQLVESGGGLVKPGGSLRLSCAASGFTFSDYYMSWIRQAPGKGLEWVSYISDKSRYTKYTDKVRGRFTISRDNAKNSLYLQMNSLRAEDTAVYYCARYLYQVIAIADAWGQGTLVTVSS
VL: DIQMTQSPSSVSASVGDRVTITCRASQGISSWLAWFQQKPGKAPKLLIFVASNLESGVPSRFSGSGSGTDFTLTISSLQPEDFATYYCQQAESFPYTFGQGTKLEIK
B7 yielded a Kd of 0.002 nM.

B8: AB13-433 (antibody, V domains shown)
VH: QVQLVESGGGLVKPGGSLRLSCAASGFTFSDYYMSWIRQAPGKGLEWVSYISDSSTYTNYTDSVRGRFTISRDNAKNSLYLQMNSLRAEDTAVYYCARYLYQVIAVADSWGQGTLVTVSS
VL: DIQMTQSPSSVSASVGDRVTITCRASQGISSWLAWFQQKPGKAPKLLIYVASNLESGVPSRFSGSGSGTDFTLTISSLQPEDFATYYCQQANSFPYTFGQGTKLEIK
Turning to B8, the equilibrium dissociation constant (Kd) stood at 0.24 nM.
